Assay results: the RNAGym collection of RNA variant scans (doi:10.7554/elife.80360)

B1: HDV Ribozyme (parent)
chain: GGCCGGCAUGGUCCCAGCCUCCUCGCUGGCGCCGGCUGGGCAACAUUCCGAGGGGACCGUCCCCUCGGUAAUGGCGAAUGGGACCCA

Variants of: B1
Test: self-cleavage, relative activity (ratio to wild type); higher = more cleavage; co-transcriptional

First: GGCCGGCAUGGUCCCAGCCUCCUCGCUGGCGCCGGCUGGGCAACAUUCCGAGGGGACCGUCCCCUCGGUAAUGGCGAUGGGGACCCA
Second: GGCCGGCAUGGUCCCAGCCUCCUCGCUGGCGCCGGCUGGGCAACAUUCCGAGGGGACCGUCCCCUCGGUAAUGGCGAUCGGGACCCA
The self-cleavage of the first is lower: 0.138 for the first, 0.375 for the second.

Compared with GGCCGGCAUGGUCCCAGCCUCCUCGCUGGCGCCGGCUGGGCAACAUUCCGAGGGGACCGUCCCCUCGGUAAUGGCGAAUCGGUCCCA, GGCCGGCAUGGUCCCAGCCUCCUCGCUGGCGCCGGCUGGGCAACAUUCCGAGGGGACCGUCCCCUCGGUAAUGGCGAAGGGGUCCCA is lower in self-cleavage: 0.164 for the first, 0.122 for the second.

First: GGCCGGCAUGGUCCCAGCCUCCUCGCUGGCGCCGGCUGGGCAACAUUCCGAGGGGACCGUCCCCUCGGUAAUGGCGAAUCGGACGCA
Second: GGCCGGCAUGGUCCCAGCCUCCUCGCUGGCGCCGGCUGGGCAACAUUCCGAGGGGACCGUCCCCUCGGUAAUGGCGAAUUGGGCCCA
The self-cleavage of the first is lower: 0.205 for the first, 0.253 for the second.

Going from GGCCGGCAUGGUCCCAGCCUCCUCGCUGGCGCCGGCUGGGCAACAUUCCGAGGGGACCGUCCCCUCGGUAAUGGCGAAUUGGCCCCA to GGCCGGCAUGGUCCCAGCCUCCUCGCUGGCGCCGGCUGGGCAACAUUCCGAGGGGACCGUCCCCUCGGUAAUGGCGAACGGUACCCA, the self-cleavage rises from 0.254 to 0.256.

Compared with GGCCGGCAUGGUCCCAGCCUCCUCGCUGGCGCCGGCUGGGCAACAUUCCGAGGGGACCGUCCCCUCGGUAAUGGCGAACGGCACCCA, GGCCGGCAUGGUCCCAGCCUCCUCGCUGGCGCCGGCUGGGCAACAUUCCGAGGGGACCGUCCCCUCGGUAAUGGCGACUGGGGCCCA is lower in self-cleavage: 0.222 for the first, 0.179 for the second.

First: GGCCGGCAUGGUCCCAGCCUCCUCGCUGGCGCCGGCUGGGCAACAUUCCGAGGGGACCGUCCCCUCGGUAAUGGCGAAUAGGACCGA
Second: GGCCGGCAUGGUCCCAGCCUCCUCGCUGGCGCCGGCUGGGCAACAUUCCGAGGGGACCGUCCCCUCGGUAAUGGCGAAGGGCACCCA
The self-cleavage of the first is higher: 0.362 for the first, 0.119 for the second.

Compared with GGCCGGCAUGGUCCCAGCCUCCUCGCUGGCGCCGGCUGGGCAACAUUCCGAGGGGACCGUCCCCUCGGUAAUGGCGAAAGGGAGCCA, GGCCGGCAUGGUCCCAGCCUCCUCGCUGGCGCCGGCUGGGCAACAUUCCGAGGGGACCGUCCCCUCGGUAAUGGCGAUUGGGACUCA is lower in self-cleavage: 0.256 for the first, 0.18 for the second.

Compared with GGCCGGCAUGGUCCCAGCCUCCUCGCUGGCGCCGGCUGGGCAACAUUCCGAGGGGACCGUCCCCUCGGUAAUGGCGAUUGGGACACA, GGCCGGCAUGGUCCCAGCCUCCUCGCUGGCGCCGGCUGGGCAACAUUCCGAGGGGACCGUCCCCUCGGUAAUGGCGAGUGGGCCCCA is lower in self-cleavage: 0.185 for the first, 0.128 for the second.

Going from GGCCGGCAUGGUCCCAGCCUCCUCGCUGGCGCCGGCUGGGCAACAUUCCGAGGGGACCGUCCCCUCGGUAAUGGCGAAGGCGACCCA to GGCCGGCAUGGUCCCAGCCUCCUCGCUGGCGCCGGCUGGGCAACAUUCCGAGGGGACCGUCCCCUCGGUAAUGGCGAGUGCGACCCA, the self-cleavage falls from 0.26 to 0.148.

First: GGCCGGCAUGGUCCCAGCCUCCUCGCUGGCGCCGGCUGGGCAACAUUCCGAGGGGACCGUCCCCUCGGUAAUGGCGUCUGGGACCCA
Second: GGCCGGCAUGGUCCCAGCCUCCUCGCUGGCGCCGGCUGGGCAACAUUCCGAGGGGACCGUCCCCUCGGUAAUGGCGAAAGGGUCCCA
The self-cleavage of the first is higher: 0.332 for the first, 0.256 for the second.

Going from GGCCGGCAUGGUCCCAGCCUCCUCGCUGGCGCCGGCUGGGCAACAUUCCGAGGGGACCGUCCCCUCGGUAAUGGCGAUUAGGACCCA to GGCCGGCAUGGUCCCAGCCUCCUCGCUGGCGCCGGCUGGGCAACAUUCCGAGGGGACCGUCCCCUCGGUAAUGGCGAAUAAGACCCA, the self-cleavage rises from 0.111 to 0.185.

First: GGCCGGCAUGGUCCCAGCCUCCUCGCUGGCGCCGGCUGGGCAACAUUCCGAGGGGACCGUCCCCUCGGUAAUGGCGGACGGGACCCA
Second: GGCCGGCAUGGUCCCAGCCUCCUCGCUGGCGCCGGCUGGGCAACAUUCCGAGGGGACCGUCCCCUCGGUAAUGGCGGAAGGGACCCA
The self-cleavage of the first is lower: 0.443 for the first, 0.554 for the second.

Compared with GGCCGGCAUGGUCCCAGCCUCCUCGCUGGCGCCGGCUGGGCAACAUUCCGAGGGGACCGUCCCCUCGGUAAUGGCGGAGGGGACCCA, GGCCGGCAUGGUCCCAGCCUCCUCGCUGGCGCCGGCUGGGCAACAUUCCGAGGGGACCGUCCCCUCGGUAAUGGCGGAUGGGACUCA is higher in self-cleavage: 0.465 for the first, 1.04 for the second.

Going from GGCCGGCAUGGUCCCAGCCUCCUCGCUGGCGCCGGCUGGGCAACAUUCCGAGGGGACCGUCCCCUCGGUAAUGGCGAGUUGGACCCA to GGCCGGCAUGGUCCCAGCCUCCUCGCUGGCGCCGGCUGGGCAACAUUCCGAGGGGACCGUCCCCUCGGUAAUGGCGAAGGGGACACA, the self-cleavage rises from 0.12 to 0.415.

Compared with GGCCGGCAUGGUCCCAGCCUCCUCGCUGGCGCCGGCUGGGCAACAUUCCGAGGGGACCGUCCCCUCGGUAAUGGCGAGUGGGACCGA, GGCCGGCAUGGUCCCAGCCUCCUCGCUGGCGCCGGCUGGGCAACAUUCCGAGGGGACCGUCCCCUCGGUAAUGGCGAAAGAGACCCA is lower in self-cleavage: 0.806 for the first, 0.0773 for the second.

First: GGCCGGCAUGGUCCCAGCCUCCUCGCUGGCGCCGGCUGGGCAACAUUCCGAGGGGACCGUCCCCUCGGUAAUGGCGACUGGGACCCA
Second: GGCCGGCAUGGUCCCAGCCUCCUCGCUGGCGCCGGCUGGGCAACAUUCCGAGGGGACCGUCCCCUCGGUAAUGGCGAUUGGGACCCA
The self-cleavage of the first is lower: 0.164 for the first, 0.316 for the second.
